In publication PMC4802042 (2016):

B1: MKP5 catalytic domain (MKP5-CD, residues 320-467) [human] / GST-JNK1 (wild type) [human] (parent complex)
chain 1: AELTPILPFLFLGNEQDAQDLDTMQRLNIGYVINVTTHLPLYHYEKGLFNYKRLPATDSNKQNLRQYFEEAFEFIEEAHQCGKGLLIHCQAGVSRSATIVIAYLMKHTRMTMTDAYKFVKGKRPIISPNLNFMGQLLEFEEDLNNGVT
chain 2: MSRSKRDNNFYSVEIGDSTFTVLKRYQNLKPIGSGAQGIVCAAYDAILERNVAIKKLSRPFQNQTHAKRAYRELVLMKCVNHKNIIGLLNVFTPQKSLEEFQDVYIVMELMDANLCQVIQMELDHERMSYLLYQMLCGIKHLHSAGIIHRDLKPSNIVVKSDCTLKILDFGLARTAGTSFMMTPYVVTRYYRAPEVILGMGYKENVDIWSVGCIMGEMIKGGVLFPGTDHIDQWNKVIEQLGTPCPEFMKKLQPTVRTYVENRPKYAGYSFEKLFPDVLFPADSEHNKLKASQARDLLSKMLVIDASKRISVDEALQHPYINVWYDPSEAEAPPPKIPDKQLDEREHTIEEWKELIYKEVMDLLE
B2: MKP7 catalytic domain (MKP7-CD, residues 156-301) [human] / GST-JNK1 (wild type) [human] (parent complex)
chain 1: NIGPTRILPNLYLGCQRDVLNKELMQQNGIGYVLNASNTCPKPDFIPESHFLRVPVNDSFCEKILPWLDKSVDFIEKAKASNGCVLVHCLAGISRSATIAIAYIMKRMDMSLDEAYRFVKEKRPTISPNFNFLGQLLDYEKKIKNQ
chain 2: B1 chain 2

Variants of: B1
Test: GST pull-down; parent: 100; read off a plot

| percent of parent | Variant |
| --- | --- |
| ~98 % of wild-type JNK1 | chain 2 R263A |
| ~49 % of wild-type JNK1 | chain 2 I197D |
| ~98 % of wild-type JNK1 | chain 2 H230D |
| ~43 % of wild-type JNK1 | chain 2 T255A |
| ~88 % of wild-type JNK1 | chain 2 T228A |
| ~28 % of wild-type JNK1 | chain 2 I231D |
| ~67 % of wild-type JNK1 | chain 2 Q253A |

Variants of: B2
Test: GST pull-down; parent: 100; read off a plot

| percent of parent | Variant |
| --- | --- |
| ~96 % of wild-type JNK1 | chain 2 H230D |
| ~37 % of wild-type JNK1 | chain 2 I231D |
| ~73 % of wild-type JNK1 | chain 2 R263A |
| ~30 % of wild-type JNK1 | chain 2 T255A |
| ~92 % of wild-type JNK1 | chain 2 Q253A |
| ~88 % of wild-type JNK1 | chain 2 I197D |
| ~8 % of wild-type JNK1 | chain 2 V260D |
| ~5 % of wild-type JNK1 | chain 2 D229A |
| ~72 % of wild-type JNK1 | chain 2 T228A |
